Results published in patent US20110165066A1 (AbbVie / Abbott, published 2011).
Values joined by “and” are separate entries in the source; they are usually repeats but may differ in a detail not shown here. Identical values can stand only once. Values belong to the binder of their own block, whether it stands above or below them.

Tests used:
mouse IL-13 [1] = molecular target: T1, mouse IL-13 (mouse, UniProt P20109 26-131, limits assumed); assay: SPR (Biacore)
T1 construct: also called mIL-13; murine IL-13
T1 sequence (looked up): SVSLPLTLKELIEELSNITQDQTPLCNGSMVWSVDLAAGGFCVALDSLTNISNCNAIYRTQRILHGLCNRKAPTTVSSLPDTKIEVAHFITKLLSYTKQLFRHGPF

[2] = molecular target: T2, human IL-13 variant (R130Q) (human, UniProt P35225 35-146); assay: cell-based or functional assay
T2 sequence (P35225 35-146 limits assumed, stated change not applied): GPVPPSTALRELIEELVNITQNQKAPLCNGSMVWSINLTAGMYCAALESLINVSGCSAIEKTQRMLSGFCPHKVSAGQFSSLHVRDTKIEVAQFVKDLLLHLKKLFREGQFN

cynomolgus IL-13 = cynomolgus IL-13 (cynomolgus, UniProt Q0PW92 21-132); assay: cell-based or functional assay
Chain of cynomolgus IL-13 (Q0PW92 entry or part of it): as the sequence (P35225 35-146 limits assumed, stated change not applied) above, with G1S, R10K, M42V, S67N, H83R, L100V counted along it

mouse IL-13 [3] = molecular target: T1, mouse IL-13; assay: cell-based or functional assay
mouse IL-13 [4] = molecular target: T1, mouse IL-13; assay: BIACORE against recombinant mouse IL-13
human IL-13 wild type [5] = molecular target: T3, human IL-13 wild type (human, UniProt P35225 35-146); assay: SPR (Biacore), mAb captured, IL-13 as analyte
T3 construct: also called h IL-13; h IL-13 wt
T3 sequence (P35225 other isoform, or with tags, fused parts or gaps limits assumed): as the sequence (P35225 35-146 limits assumed, stated change not applied) above, with Q110R counted along it

[6] = molecular target: T2, human IL-13 variant (R130Q); assay: SPR (Biacore), mAb captured, IL-13 as analyte; row shifted, read as variant IL-13 columns
Experimental: (§1) The BIACORE assay (Biacore, Inc, Piscataway, N.J.) determines the affinity of antibodies with kinetic measurements of on-, off-rate constants. […] All chemicals were obtained from Biacore® AB (Uppsala, Sweden) or otherwise from a different source as described in the text. Approximately 5000 RU of goat anti-mouse IgG, (Fcγ), fragment specific polyclonal antibody (Pierce Biotechnology Inc, Rockford, Ill.) diluted in 10 mM sodium acetate (pH 4.5) was directly immobilized across a CM5 research grade biosensor chip using a standard amine coupling kit according to manufacturer's instructions and procedures at 25 μg/ml. Unreacted moieties on the biosensor surface were blocked with ethanolamine. Modified carboxymethyl dextran surface in flowcell 2 and 4 was used as a reaction surface. Unmodified carboxymethyl dextran without goat anti-mouse IgG in flow cell 1 and 3 was used as the reference surface. For kinetic analysis, rate equations derived from the 1:1 Langmuir binding model were fitted simultaneously to association and dissociation phases of all eight injections (using global fit analysis) with the use of Biaevaluation 4.0.1 software. Purified antibodies were diluted in HEPES-buffered saline for capture across goat anti-mouse IgG specific reaction surfaces. Mouse antibodies to be captured as a ligand (25 μg/ml) were injected over reaction matrices at a flow rate of 5 μl/min. The association and dissociation rate constants, kₒₙ (unit M⁻¹s⁻¹) and koff (unit s⁻¹) were determined under a continuous flow rate of 25 μl/min Rate constants were derived by making kinetic binding measurements at ten different antigen concentrations ranging from 10-200 nM. […] Binding is recorded as a function of time and kinetic rate constants are calculated.

human IL-13 wild type [7] = molecular target: T3, human IL-13 wild type; assay: SPR (Biacore)
Experimental: as §1

human IL-13 wild type [8] = molecular target: T3, human IL-13 wild type; assay: SPR (Biacore); remark: listed apart in the source
[9] = molecular target: T2, human IL-13 variant (R130Q); assay: SPR (Biacore)
human IL-13 wild type [10] = molecular target: T3, human IL-13 wild type; assay: cell-based or functional assay
[11] = molecular target: T2, human IL-13 variant (R130Q); assay: cell-based or functional assay; remark: listed apart in the source
human IL-13 wild type [12] = molecular target: T3, human IL-13 wild type; assay: ELISA-based receptor binding assay, blocking biotin-IL-13 binding to IL-13Rα2/Fc
Experimental: After 16 hr, coating solution was removed by flicking plate contents in sink, and plates were washed and blocked 4 times with Superblock Blocking Buffer (240 ul/well) (Pierce). […] Plates were washed 5 times with 300 ul 0.1% PBST, and then 100 ul of 1:5000 diluted mouse anti-Biotin MAb (Jackson Immunosciences) was added and incubated at RT for 45 min. The plates were washed again 5 times with 300 ul 0.1% PBST, followed by addition of TMB substrate reagent (100 ul/well, Pharmingen); developed for 5 min, and stopped by adding 50 ul of 2M H2SO4 (VWR). ODs at 450 nm were determined by spectrophotometry.

human IL-13 wild type [13] = molecular target: T3, human IL-13 wild type; assay: cell surface-based receptor binding assay, blocking 125I-IL-13 binding to IL-13Rα2-transfected COS cells
Experimental: Recombinant human IL-13 was labeled with ¹²⁵I (Amersham, Arlington Heights, Ill.), using IODO-GEN reagent (Pierce, Rockford, Ill.) as previously described (Obiri N I et al., (1995) J Biol Chem. 270:8797-8804). […] Transfected COS cells (5×10^5 cells in 100 μL binding buffer: RPMI 1640 containing 0.2% human serum albumin and 10 mmol HEPES) were incubated with 1.0 nM ¹²⁵I-IL-13 with or without 1 uM unlabeled IL-13 at 4° C. for 2 hours. Cell-bound ¹²⁵I-IL-13 was separated from unbound ¹²⁵I-IL-13 by centrifugation through a phthalate oil gradient, and radioactivity was determined with a gamma counter (Wallac, Gaithersburg, Md.).

human IL-13 wild type [14] = molecular target: T3, human IL-13 wild type; assay: receptor binding assays (cell surface-based on IL-13Rα2-transfected COS cells and ELISA-based with IL-13Rα2/Fc), 13C5.5 blocking human IL-13 binding to human IL-13Rα2; range told over both assays
human IL-13 wild type [15] = molecular target: T3, human IL-13 wild type; assay: cell-based or functional assay; remark: listed apart in the source
[16] = molecular target: T2, human IL-13 variant (R130Q); assay: SPR (Biacore), mAb captured, IL-13 as analyte
mouse IL-13 [17] = molecular target: T1, mouse IL-13; assay: indirect ELISA, captured mAb, biotinylated mouse IL-13
human IL-13 wild type [18] = molecular target: T3, human IL-13 wild type; assay: blocking of IL-13 binding to IL-13Rα2, receptor binding assays

Kd (mouse IL-13 [1]): 12000 pM
Average IC50, IL-13-induced TARC production by A-549 cells [2]: 580 pM
Average IC50, IL-13-induced TARC production by A-549 cells (cynomolgus IL-13): 797 pM
IC50, A-549 bioassay against recombinant mouse IL-13 (mouse IL-13 [3]): 2430 pM
Kd (mouse IL-13 [4]): 11200 pM
binding result (human IL-13 wild type [5]): no binding
Kd [6]: 220 pM
koff [6]: 5.58e-05 s⁻¹
kon [6]: 254000 M⁻¹ s⁻¹
B1: 3H7 (antibody, mouse IgG1, V domains shown)
VH: EVQLVESGGGLVKPGGSLKLSCAASGFTFSTYAMSWVRQTPEKRLEWVAGISSGGSYTYYPETMKGRFTISRDNARNTLYLQMSSLRSEDTAIYYCTRGSWGQGTSVTVSS
VL: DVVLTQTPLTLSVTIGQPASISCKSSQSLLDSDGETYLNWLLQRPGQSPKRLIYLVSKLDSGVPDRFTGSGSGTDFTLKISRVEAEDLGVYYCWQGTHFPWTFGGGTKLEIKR
notes: Murine monoclonal; also called mAb 3H7

Kd (human IL-13 wild type [7]): 70.1 pM
koff (human IL-13 wild type [7]): 0.000176 s⁻¹
kon (human IL-13 wild type [7]): 2.51e+06 M⁻¹ s⁻¹
Kd (human IL-13 wild type [8]): 70 pM
Kd [9]: 50 pM
Potency (IC50), A-549 bioassay (human IL-13 wild type [10]): 124 pM
Potency (IC50), A-549 bioassay [11]: 69 pM
IC50 (human IL-13 wild type [12]): 1100 pM
IC50 (human IL-13 wild type [13]): 2700 pM
IC50 (human IL-13 wild type [14]): ≥ 1000 pM and ≤ 3000 pM
B2: 13C5.5 (antibody, human IgG1, V domains shown)
VH: EVTLRESGPGLVKPTQTLTLTCTLYGFSLSTSDMGVDWIRQPPGKGLEWLAHIWWDDVKRYNPALKSRLTISKDTSKNQVVLKLTSVDPVDTATYYCARTVSSGYIYYAMDYWGQGTLVTVSS
VL: DIQMTQSPSSLSASVGDRVTISCRASQDIRNYLNWYQQKPGKAPKLLIFYTSKLHSGVPSRFSGSGSGTDYTLTISSLQPEDIATYYCQQGNTLPLTFGGGTKVEIK
notes: Humanized; The light chain row is printed 'VL 1305.5'; also called humanized 13C5; recombinant humanized antibody 13C5.5

Average IC50, IL-13-induced TARC production by A-549 cells (human IL-13 wild type [15]): 106 pM
Average IC50, IL-13-induced TARC production by A-549 cells [2]: 170 pM
Average IC50, IL-13-induced TARC production by A-549 cells (cynomolgus IL-13): 640 pM
Kd (human IL-13 wild type [5]): 112 pM
koff (human IL-13 wild type [5]): 6.5e-05 s⁻¹
kon (human IL-13 wild type [5]): 579000 M⁻¹ s⁻¹
Kd [16]: 92.1 pM
koff [16]: 5.86e-05 s⁻¹
kon [16]: 637000 M⁻¹ s⁻¹
binding result (mouse IL-13 [17]): no binding (tested: 0.1 to 100 ng/ml)
IC50 (human IL-13 wild type [18]): > 10000 pM
B3: 9C11 (antibody, V domains shown)
VH: QVRLQQPGAELVRPGASVKLSCKASGYTFTSSWIHWVNQRPGQGLEWIGMIHPSDSETRLNQKFKDKATLTVDKSSSTAYMQLSSPTSEDSAVYYCASTATDFDYWGQGTTLTVSS
VL: DVVLTQTPLSLPVNIGDQASISCRSTQTLLNSDGFTYLDWYLQKPGQSPQLLIYLVSNRFSGVPDRFSGSGSGTDFTLKISRVEAEDLGVYYCFQNNYLPLTFGAGTKLELKR
